# Source: patent US11905559B2, “Materials and methods for controlling gene expression” (priority 2016, dated 2024)
# “And” between values parts separate entries of the source, which are not always exact repeats. Identical values can stand only once. Like-named read-outs stand apart in the source and are kept apart here.
# B1: wt: 69-nucleotide full-length wild-type guanine sensing aptamer RNA sequence from xpt-pbuX operon in B. subtilis (SEQ ID NO: 1) (nucleic acid)
# chain: CACUCAUAUAAUCGCGUGGAUAUGGCACGCAAGUUUCUACCGGGCACCGUAAAUGUCCGACUAUGGGUG
# modifications: RNA, backbone and methylation of C not given here
# B2: m7: m7 mutant guanine sensing aptamer RNA (SEQ ID NO: 8); U25C in J1/2 (nucleic acid)
# chain: CACUCAUAUAACCGCGUGGAUAUGGCACGCAAGUUUCUACCGGGCACCGUAAAUGUCCGACUAUGGGUG
# modifications: RNA, backbone and methylation of C not given here
# Experiments:
# [1] = Constant-force (CF) single-molecule optical tweezers folding assay of guanine-aptamer RNAs in guanine buffer; type: physicochemical; settings: for F^eq / k^eq: [G] = 200 nM; for Observed nucleotides / Observed ΔXobs: CF; for k^eq: at F^eq; for Equilibrium force F^eq / Folding rate kf / Unfolding rate ku / Transition distance ΔX / ΔG (0): 3 mM Mg^2+
# Text: The aptamer folding was monitored in real time using a constant-force (CF) assay. Equilibrium sampling techniques provide unprecedented insights into the rare events in the course of folding that are otherwise difficult to identify. The technique also allows for determination of the kinetic rates that has not been fully investigated in the guanine riboswitch. The relative dynamics of the helices have been investigated in ensemble and smFRET experiments, which indicated a non-dynamic P1-P3, upon which the P2 helix switches conformations. As shown in FIG. 6A (left panel), the RNA oscillated between the linear and the hairpin conformations (E↔D↔C) at 13 pN. The distances ΔXED=7.1±0.4 nm and ΔXDC=7.9±0.4 nm correspond to the folding of a 17±1 nt (P2) and 19±1 nt (P3) respectively (FIGS. 7A-B). The conversion of distances to nucleotides in CF assay are described in Table 2.
# A miniaturized dual beam optical tweezers instrument was constructed with a sampling rate of 0.4, 4 and 40 kHz. Typically, in the tweezers set up (FIGS. 2A-E), a single-molecule of RNA is held between two beads via ˜550 nucleotide (nt) long Handles A and B. Preparation of Handles and the RNA is described in the section above. The streptavidin coated polystyrene bead (diameter 1.5-1.9 μm, Spherotech Inc.) is fixed on a micropipette via suction, and the anti-digoxigenin coated bead (diameter 4.0-4.9 μm, Spherotech Inc.) is held in the dual counter-propagating laser beam. The trap stiffness, K is measured at 0.04-0.06 pN/nm from the power spectrum analysis of the Brownian motion of the trapped bead. For power spectrum analysis, a polystyrene bead with diameter ˜4.6 μm is trapped in the counter-propagating laser beam in aqueous buffer with a fixed trap position. […] The average from 10 beads yielded K˜0.049±0.0008 pN/nm, and the stoke's drag coefficient, y=0.0364±0.0002 pN. s/μm. […] However, the autocorrelation time (τ0) defined as the τ1=1/2πfc as described by Zoldak et al., “Ultrafast folding kinetics and cooperativity of villin headpiece in single-molecule force spectroscopy”. Proc. Natl. Acad. Sci. U.S.A 110, 18156 (2013) sets the detection limit for the observable kinetics, which is different from the sampling frequencies. […] The ACF for the time series of force signal, Fi, with sampling rate δ and N data points, is calculated as,
# In a constant-force (CF) experiment, the RNA is held at a preset force through feedback control. The preset force typically fluctuated around the mean with a standard deviation ±0.15 pN. In this mode, data is recorded from 4-40 kHz to capture the fast intermediates. The plots are shown as extension vs. time (as in FIG. 6A). In force-jump (FJ) assay, the force is suddenly jumped from one force to another, and then held constant thereafter, as shown in FIGS. 23A-B.
# All FR, CF and FJ experiments were carried out at an ambient temperature, 25±0.5° C. The buffer in the microfluidics contained 10 mM Tris-HCl, pH 7.5 at 25° C., 250 mM NaCl, 3 mM MgCl2, and purine concentrations as indicated in wild-type aptamer. Unless stated otherwise, Mg^2+ concentration in the buffer was maintained at 3 mM in all experiments. The buffer in mutant m1 contained 5 mm Mg^2+ and 1 μM G, and in m3 contained 5 mM Mg^2+ and 200 nM Guanine. For the remaining m2, m4, m5 and m6 mutants, the buffer in single-molecule experiments was supplemented only with 3 mM Mg^2+ and 200 nM Guanine.
# In the force-ramp experiment, the trap was moved away (pull cycle) from the micropipette at 200 nm/sec, which corresponded to a loading rate of 7-8 pN/sec. This movement of the trap exerted a tension at the ends of the tethered RNA aptamer. […] In the constant-force (CF) experiment, the RNA was held at a preset force (FIG. 6A). The loading rate in CF experiments was zero. The preset force typically fluctuated around the mean with standard deviation ±0.15 pN. […]
# [2] = Isothermal titration calorimetry (ITC); type: binding; settings: 30° C.; for Kd: 50 mM K^+ Hepes pH 7.5, 100 mM KCl, 10 mM MgCl2, read-out: KD for guanine
# Protocol: For ITC experiments, wild-type G-aptamer and the mutant RNAs were synthesized by in vitro transcription of the DNA template and purified by denaturing polyacrylamide gel electrophoresis (PAGE). The ligand guanine was introduced in the syringe, while the RNA into the sample cell at a final concentration of 10 μM and 1 μM respectively. The concentrations were determined by absorbance reading using ε260=12010 M^−1 cm^−1 (guanine) and ε260=711400 M^−1 cm^−1 (RNA). The buffer in the syringe and the sample cell contained 50 mM K^+ Hepes (pH 7.5), 100 mM KCl, and 10 mM MgCl2. Binding reactions were performed at 30° C. on a MicroCal iTC200 instrument (Malvern) with a reference power of 6 μcal/sec, an initial delay of 60 secs and a stirring speed of 750 rpm. Guanine was titrated into the sample cell in 16 injections (2.5 μl each). The injection rate was 0.5 μl/sec and the spacing between the injections was maintained at 120 sec. Data was baseline corrected and fitted to a single-site binding model to obtain association constant (KA), stoichiometry (n) and binding enthalpy, ΔH. The dissociation constant (KD) and the binding free energy, ΔG was obtained from the fitted parameters using the following relations. All data analysis was performed using the Origin ITC software.
# The ITC results are reported as mean±standard deviation from three independent experiments.
# [3] = in-line probing assay; read-out: KD for guanine; cited from earlier work
# [4] = transition BA (P1 folding), F 8.5 pN, 200 nM G
# [5] = transition CB (J2/3 folding), F 13 pN, 200 nM G
# [6] = transition C′B (L2-L3 folding), F 8.5 pN, 200 nM G
# [7] = transition DC (P3 folding), F 13 pN, 200 nM G
# [8] = transition ED (P2 folding), F 13 pN, 200 nM G
# [9] = transition BA (P1 folding), F 8.0 pN, 1 uM G
# [10] = transition C′B (L2-L3 folding), F 8.0 pN, 1 uM G
# [11] = transition DC (P3 folding), F 12.0 pN, 1 uM G
# [12] = transition ED (P2 folding), F 13.5 pN, 1 uM G
molecule,measurement,setting,value
B1,F^eq,[1]; Closed J2/3 (CB),~13 pN
same,Time to form the native receptor structure after guanine binding,[1]; FIG. 22,~8 μsec
same,Observed nucleotides,"[1]; J2/3 (CB), 13 pN",8.4 ± 0.2
same,Observed ΔXobs,"[1]; J2/3 (CB), 13 pN",3.5 ± 0.1 (CF) nm
same,Observed ΔXobs,"[1]; L2-L3 (C′B), 8.5 pN",3.4 ± 0.1 (CF) nm
same,F^eq,[1]; L2-L3 (C′B),8.72 ± 0.11 pN
same,k^eq,[1]; L2-L3 (C′B),0.82 ± 0.06 s⁻¹
same,F^eq,[1]; P1 (BA),8.21 ± 0.11 pN
same,k^eq,[1]; P1 (BA),0.55 ± 0.09 s⁻¹
same,Observed nucleotides,"[1]; P1+ junctions (BA), 8.5 pN",21.7 ± 0.5
same,Observed ΔXobs,"[1]; P1+ junctions (BA), 8.5 pN, 2 nm helix width subtracted",8.0 ± 0.2 (CF) nm
same,F^eq,[1]; P2 (ED),13.49 ± 0.03 pN
same,k^eq,[1]; P2 (ED),13.20 ± 0.20 s⁻¹
same,Observed nucleotides,"[1]; P2 hairpin (ED), 13 pN",17±1
same,Observed ΔXobs,"[1]; P2 hairpin (ED), 13 pN",7.1 ± 0.4 (CF) nm
same,F^eq,[1]; P3 (DC),12.19 ± 0.02 pN
same,k^eq,[1]; P3 (DC),16.80 ± 0.30 s⁻¹
same,Observed nucleotides,"[1]; P3 hairpin (DC), 13 pN",19±1 and 18.9 ± 1
same,Observed ΔXobs,"[1]; P3 hairpin (DC), 13 pN",7.9 ± 0.4 (CF) nm
same,Barrier ΔGP1^‡ before folding of the P1-stem,[1]; free energy landscape transformed to zero force,~6 kBT
same,F^eq for P2-P3,[1]; guanine-aptamer,~13 pN
same,Rates for the two hairpins P2 and P3,[1]; range over Table 1,8.5 to 32.3 s⁻¹
same,Equilibrium force F^eq,"[1]; transition BA (P1 folding), 200 nM G (rates at 8.5 pN)",8.2 ± 0.1 pN
same,Folding rate kf,[1]; [4],0.4 ± 0.03 s⁻¹
same,Unfolding rate ku,[1]; [4],0.7 ± 0.09 s⁻¹
same,Transition distance ΔX,"[1]; transition BA (P1 folding), F 8.5 pN, 200 nM G, no helix width adjustment",9.9 ± 0.2 nm
same,ΔG (0),"[1]; transition BA (P1 folding), zero force, from data at 8.5 pN, 200 nM G",−13.9 ± 0.4 kBT
same,ΔG (0),"[1]; transition BA (P1 folding), zero force, from data at 8.5 pN, 200 nM G, listed as wild-type",−13.9 kBT
same,Transition distance ΔX,[1]; [5],3.5 ± 0.1 nm
same,Unfolding rate ku,[1]; [5],2.6 ± 0.5 s⁻¹
same,ΔG (0),"[1]; transition CB (J2/3 folding), zero force, ΔG(0) = −F·ΔX + ΔGstretch, 200 nM G",−7.2 ± 0.3 kBT
same,Equilibrium force F^eq,"[1]; transition C′B (L2-L3 folding), 200 nM G (rates at 8.5 pN)",8.7 ± 0.1 pN
same,Folding rate kf,[1]; [6],0.9 ± 0.06 s⁻¹
same,Transition distance ΔX,[1]; [6],3.4 ± 0.1 nm
same,Unfolding rate ku,[1]; [6],0.8 ± 0.05 s⁻¹
same,ΔG (0),"[1]; transition C′B (L2-L3 folding), zero force, from data at 8.5 pN, 200 nM G",−7.1 ± 0.2 kBT
same,Equilibrium force F^eq,"[1]; transition DC (P3 folding), 200 nM G (rates at 13 pN)",12.2 ± 0.02 pN
same,Equilibrium force F^eq,"[1]; transition DC (P3 folding), 200 nM G (rates at 13 pN), listed as wild-type",12.2±0.02 pN
same,Folding rate kf,[1]; [7],8.5 ± 0.1 s⁻¹
same,Transition distance ΔX,[1]; [7],7.9±0.4 nm
same,Unfolding rate ku,[1]; [7],32.3 ± 0.5 s⁻¹
same,ΔG (0),"[1]; transition DC (P3 folding), zero force, from data at 13 pN, 200 nM G",−16.3 ± 0.3 kBT
same,ΔG (0),"[1]; transition DC (P3 folding), zero force, from data at 13 pN, 200 nM G, listed as wild-type",−16.3 kBT
same,Equilibrium force F^eq,"[1]; transition ED (P2 folding), 200 nM G (rates at 13 pN)",13.5 ± 0.03 pN
same,Equilibrium force F^eq,"[1]; transition ED (P2 folding), 200 nM G (rates at 13 pN), listed as wild-type",13.5±0.03 pN
same,Folding rate kf,[1]; [8],20.0 ± 0.4 s⁻¹
same,Transition distance ΔX,[1]; [8],7.1±0.4 nm
same,Unfolding rate ku,[1]; [8],8.9 ± 0.1 s⁻¹
same,ΔG (0),"[1]; transition ED (P2 folding), zero force, from data at 13 pN, 200 nM G",−16.7 ± 0.3 kBT
same,Net free energy change ΔΔGaptamer,"[1]; zero force, guanine-bound receptor structure",−81 kT
same,ΔG of guanine binding,[2],-11.63 ± 0.20 kcal/mol
same,ΔH of guanine binding,[2],-63.7 ± 1.1 kcal/mol
same,Kd,[2],4.22 ± 0.6 nM
same,Kd,[3],~5 nM
B2,Equilibrium force F^eq,"[1]; transition BA (P1 folding), 1 uM G (rates at 8.0 pN)",7.4 ± 0.2 pN
same,Folding rate kf,[1]; [9],0.5 ± 0.08 s⁻¹
same,Transition distance ΔX,[1]; [9],9.6 ± 0.3 nm
same,Unfolding rate ku,[1]; [9],1.7 ± 0.4 s⁻¹
same,ΔG (0),"[1]; transition BA (P1 folding), zero force, from data at 8.0 pN, 1 uM G",−11.8 kBT and −11.8 ± 0.6 kBT
same,Equilibrium force F^eq,"[1]; transition C′B (L2-L3 folding), 1 uM G (rates at 8.0 pN)",8.1 ± 0.4 pN
same,Folding rate kf,[1]; [10],0.9 ± 0.2 s⁻¹
same,Transition distance ΔX,[1]; [10],3.5 ± 0.2 nm
same,Unfolding rate ku,[1]; [10],1.2 ± 0.2 s⁻¹
same,ΔG (0),"[1]; transition C′B (L2-L3 folding), zero force, from data at 8.0 pN, 1 uM G",−6.5 kBT and −6.5 ± 0.5 kBT
same,Equilibrium force F^eq,"[1]; transition DC (P3 folding), 1 uM G (rates at 12.0 pN)",11.8 ± 0.05 pN
same,Folding rate kf,[1]; [11],16.6 ± 0.5 s⁻¹
same,Transition distance ΔX,[1]; [11],7.6 ± 0.2 nm
same,Unfolding rate ku,[1]; [11],28.3 ± 1.0 s⁻¹
same,ΔG (0),"[1]; transition DC (P3 folding), zero force, from data at 12.0 pN, 1 uM G",−14.8 ± 0.6 kBT
same,Equilibrium force F^eq,"[1]; transition ED (P2 folding), 1 uM G (rates at 13.5 pN)",13.3 ± 0.05 pN
same,Folding rate kf,[1]; [12],10.0 ± 0.3 s⁻¹
same,Transition distance ΔX,[1]; [12],7.1 ± 0.3 nm
same,Unfolding rate ku,[1]; [12],20.1 ± 0.5 s⁻¹
same,ΔG (0),"[1]; transition ED (P2 folding), zero force, from data at 13.5 pN, 1 uM G",−15.8 ± 1.0 kBT
same,Kd,[2],16.9 ± 1 nM
